Results taken from the Immune Epitope Database (IEDB).
Each block holds one sequence with its values, some of them ahead of it.

How the values were obtained:
[1] = target: HLA-A*01:01; experiment: IEDB peptide-MHC binding, purified MHC/competitive/fluorescence; filed as Kd, often an IC50 or EC50 that approximates it; ≥ and ≤ were set here for values at or beyond the usual limits of such assays; conditions: source organism: Human immunodeficiency virus 1
[2] = target: HLA-A*02:03; experiment: as above; conditions: source organism: Human immunodeficiency virus 1
[3] = target: HLA-A*02:06; experiment: as above
[4] = target: HLA-A*11:01; experiment: as above; conditions: source organism: Human immunodeficiency virus 1
[5] = target: HLA-A*26:02; experiment: as above
[6] = target: HLA-A*30:01; experiment: as above; conditions: source organism: Human immunodeficiency virus 1
[7] = target: HLA-A*31:01; experiment: as above
[8] = target: HLA-A*68:02; experiment: as above
[9] = target: HLA-A*69:01; experiment: as above
[10] = target: HLA-B*08:01; experiment: as above; conditions: source organism: Human immunodeficiency virus 1
[11] = target: HLA-B*15:17; experiment: as above
[12] = target: HLA-B*18:01; experiment: as above
[13] = target: HLA-B*35:01; experiment: as above
[14] = target: HLA-B*39:01; experiment: as above; conditions: source organism: Human immunodeficiency virus 1
[15] = target: HLA-B*57:01; experiment: as above; conditions: source organism: Human immunodeficiency virus 1
[16] = target: HLA-B*58:01; experiment: as above; conditions: source organism: Human immunodeficiency virus 1
[17] = target: HLA-A*11:01; experiment: IEDB peptide-MHC binding, purified MHC/direct/fluorescence; filed as Kd, often an IC50 or EC50 that approximates it; ≥ and ≤ were set here for values at or beyond the usual limits of such assays
[18] = target: HLA-A*32:07; experiment: IEDB peptide-MHC binding, purified MHC/competitive/fluorescence; filed as Kd, often an IC50 or EC50 that approximates it; ≥ and ≤ were set here for values at or beyond the usual limits of such assays
[19] = target: HLA-B*15:42; experiment: as above
[20] = target: HLA-B*45:06; experiment: as above
[21] = target: HLA-B*83:01; experiment: as above
[22] = target: HLA-A*30:01; experiment: IEDB peptide-MHC binding, purified MHC/competitive/radioactivity; filed as Kd, often an IC50 or EC50 that approximates it; ≥ and ≤ were set here for values at or beyond the usual limits of such assays; conditions: source organism: Dengue virus 1 Brazil/97-11/1997
[23] = target: HLA-A*32:01; experiment: as above; conditions: source organism: Dengue virus 1 Brazil/97-11/1997
[24] = target: HLA-B*07:02; experiment: IEDB peptide-MHC binding, purified MHC/direct/fluorescence; filed as Kd, often an IC50 or EC50 that approximates it; ≥ and ≤ were set here for values at or beyond the usual limits of such assays
[25] = target: HLA-B*15:01; experiment: as above
[26] = target: HLA-B*51:01; experiment: as above; conditions: source organism: Mycobacterium tuberculosis
[27] = target: HLA-C*04:01; experiment: IEDB peptide-MHC binding, purified MHC/competitive/fluorescence; filed as Kd, often an IC50 or EC50 that approximates it; ≥ and ≤ were set here for values at or beyond the usual limits of such assays
[28] = target: HLA-A*01:01; experiment: IEDB peptide-MHC binding, purified MHC/direct/fluorescence; filed as Kd, often an IC50 or EC50 that approximates it; ≥ and ≤ were set here for values at or beyond the usual limits of such assays
[29] = target: HLA-A*02:01; experiment: as above
[30] = target: HLA-A*03:01; experiment: as above; conditions: source organism: Escherichia coli O157:H7
[31] = target: HLA-A*31:01; experiment: as above; conditions: source organism: Escherichia coli O157:H7
[32] = target: HLA-B*15:17; experiment: as above; conditions: source organism: Escherichia coli O157:H7
[33] = target: HLA-B*27:05; experiment: as above
[34] = target: HLA-B*40:01; experiment: as above
[35] = target: HLA-B*46:01; experiment: as above
[36] = target: HLA-B*48:01; experiment: as above
[37] = target: HLA-B*57:01; experiment: as above
[38] = target: HLA-B*58:01; experiment: as above
[39] = target: HLA-B*15:01; experiment: IEDB peptide-MHC binding, purified MHC/competitive/fluorescence; filed as Kd, often an IC50 or EC50 that approximates it; ≥ and ≤ were set here for values at or beyond the usual limits of such assays; conditions: source organism: Escherichia coli
[40] = target: HLA-A*02:01; experiment: as above; conditions: source organism: Toxoplasma gondii GT1
[41] = target: HLA-A*26:03; experiment: IEDB peptide-MHC binding, purified MHC/direct/fluorescence; filed as Kd, often an IC50 or EC50 that approximates it; ≥ and ≤ were set here for values at or beyond the usual limits of such assays
[42] = target: HLA-A*68:02; experiment: as above; conditions: source organism: Buffalopox virus
[43] = target: HLA-A*69:01; experiment: as above; conditions: source organism: Buffalopox virus
[44] = target: HLA-B*39:01; experiment: as above; conditions: source organism: Buffalopox virus
[45] = target: HLA-B*07:02; experiment: IEDB peptide-MHC binding, purified MHC/competitive/fluorescence; filed as Kd, often an IC50 or EC50 that approximates it; ≥ and ≤ were set here for values at or beyond the usual limits of such assays; conditions: source organism: Variola virus
[46] = source organism: Human immunodeficiency virus 1
[47] = source organism: dengue virus type 1
[48] = source organism: Mycobacterium tuberculosis
[49] = source organism: Francisella tularensis subsp. tularensis FSC198
[50] = source organism: Escherichia coli O157:H7
[51] = source organism: Escherichia coli
[52] = source organism: Buffalopox virus

Sequence: KSLFNTVATLY
- Kd [1]: 2110 nM
- Kd [2]: 190 nM
- Kd [3, 46]: 156 nM
- Kd [4]: 233 nM
- Kd [5, 46]: ≥ 20000 nM
- Kd [6]: ≥ 20000 nM
- Kd [7, 46]: ≥ 20000 nM
- Kd [8, 46]: 3470 nM
- Kd [9, 46]: 2840 nM
- Kd [10]: ≥ 20000 nM
- Kd [11, 46]: 3.8 nM
- Kd [12, 46]: 242 nM
- Kd [13, 46]: 2410 nM
- Kd [14]: ≥ 20000 nM
- Kd [15]: 235 nM
- Kd [16]: 2.8 nM

Sequence: ATYGWNLVK
- Kd ([17]; source organism: Dengue virus 1 Singapore/S275/1990): ≤ 1 nM
- Kd [7, 47]: 1.48 nM
- Kd [18, 47]: 77.4 nM
- Kd [19, 47]: ≥ 5000 nM
- Kd [20, 47]: ≥ 5000 nM
- Kd [21, 47]: ≥ 5000 nM
- Kd [22]: 212 nM
- Kd [23]: 755 nM

Sequence: ALRQARAAF
- Kd [24, 48]: 8.9 nM
- Kd ([25]; source organism: Mycobacterium tuberculosis str. Haarlem): 12 nM
- Kd [26]: ≥ 20000 nM
- Kd [18, 48]: 157 nM
- Kd [19, 48]: ≥ 5000 nM
- Kd [20, 48]: ≥ 5000 nM
- Kd [27, 48]: ≥ 5000 nM

Sequence: MGAGLVFPI
- Kd [18, 49]: 44.8 nM
- Kd [8, 49]: ≤ 0.1 nM
- Kd [19, 49]: ≥ 5000 nM
- Kd [20, 49]: ≥ 5000 nM
- Kd [21, 49]: ≥ 5000 nM
- Kd [27, 49]: ≥ 5000 nM

- Kd [28, 50]: ≥ 20000 nM
- Kd [29, 50]: ≥ 20000 nM
- Kd [30]: ≥ 20000 nM
- Kd [17, 50]: ≥ 20000 nM
- Kd [31]: ≥ 20000 nM
- Kd [24, 50]: ≥ 20000 nM
- Kd [32]: ≥ 20000 nM
- Kd [33, 50]: ≥ 20000 nM
- Kd [34, 50]: ≥ 20000 nM
- Kd [35, 50]: ≥ 20000 nM
- Kd [36, 50]: ≥ 20000 nM
- Kd [37, 50]: ≥ 20000 nM
- Kd [38, 50]: ≥ 20000 nM
- Kd [3, 51]: 846 nM
- Kd [5, 51]: ≥ 20000 nM
- Kd [8, 51]: ≥ 20000 nM
- Kd [9, 51]: ≥ 20000 nM
- Kd [39]: 863 nM
Sequence: EQRLIDICV

Sequence: VLGSWPVDL
- Kd [40]: 209 nM
- Kd ([3]; source organism: Toxoplasma gondii GT1): 2460 nM

Sequence: HVFVCGNNM
- Kd ([41]; source organism: Fowlpox virus): 76 nM

Sequence: IHSDQLSKF
- Kd [28, 52]: ≥ 20000 nM
- Kd [29, 52]: ≥ 20000 nM
- Kd ([41]; source organism: Variola virus): ≥ 20000 nM
- Kd [42]: ≥ 20000 nM
- Kd [43]: ≥ 20000 nM
- Kd [25, 52]: ≥ 20000 nM
- Kd [33, 52]: ≥ 20000 nM
- Kd [44]: ≥ 20000 nM
- Kd [34, 52]: ≥ 20000 nM
- Kd [35, 52]: ≥ 20000 nM
- Kd [36, 52]: ≥ 20000 nM
- Kd [37, 52]: ≥ 20000 nM
- Kd [38, 52]: ≥ 20000 nM
- Kd ([5]; source organism: Variola virus): 2680 nM
- Kd [45]: ≥ 20000 nM
- Kd ([11]; source organism: Variola virus): ≥ 20000 nM
- Kd ([12]; source organism: Variola virus): 4570 nM
- Kd ([13]; source organism: Variola virus): 2380 nM
